Assays:
SsoPCNA2 [1] = biological target: T1, SsoPCNA2 (Sulfolobus solfataricus); test: SPR; 5 nM SsoPCNA1
T1 chain: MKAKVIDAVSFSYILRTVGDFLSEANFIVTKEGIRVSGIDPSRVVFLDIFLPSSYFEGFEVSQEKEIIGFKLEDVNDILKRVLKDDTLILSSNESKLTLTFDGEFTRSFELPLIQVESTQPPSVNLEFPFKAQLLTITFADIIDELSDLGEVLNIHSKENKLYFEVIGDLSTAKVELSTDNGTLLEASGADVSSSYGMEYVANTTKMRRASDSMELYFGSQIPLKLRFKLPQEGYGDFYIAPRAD

MsePCNA2 [2] = biological target: T2, MsePCNA2 (Metallosphaera sedula, UniProt A4YHP5 1-244); test: SPR; 5 nM SsoPCNA1
T2 chain: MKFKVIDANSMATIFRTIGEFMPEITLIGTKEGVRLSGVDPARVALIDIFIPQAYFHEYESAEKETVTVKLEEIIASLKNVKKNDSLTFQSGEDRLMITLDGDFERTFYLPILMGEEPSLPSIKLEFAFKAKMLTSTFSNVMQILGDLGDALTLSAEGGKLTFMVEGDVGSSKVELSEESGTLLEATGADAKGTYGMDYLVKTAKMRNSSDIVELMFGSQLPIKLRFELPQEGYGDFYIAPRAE

SsoPCNA2 [3] = biological target: T1, SsoPCNA2; test: SPR; 5 nM SsoPCNA1
SsoPCNA2 [4] = biological target: T1, SsoPCNA2; test: SPR; 10 nM SsoPCNA1
MsePCNA2 [5] = biological target: T2, MsePCNA2; test: SPR; 10 nM SsoPCNA1
SsoPCNA2 [6] = biological target: T1, SsoPCNA2; test: SPR; 20 nM SsoPCNA1
MsePCNA2 [7] = biological target: T2, MsePCNA2; test: SPR; 20 nM SsoPCNA1
SsoPCNA2 [8] = biological target: T1, SsoPCNA2; test: SPR; 40 nM SsoPCNA1
SsoPCNA2 [9] = biological target: T1, SsoPCNA2; test: SPR; 75 nM SsoPCNA1
MsePCNA2 [10] = biological target: T2, MsePCNA2; test: SPR; 75 nM SsoPCNA1
MsePCNA2 [11] = biological target: T2, MsePCNA2; test: SPR; 10 nM SsoPCNA1
SsoPCNA2 [12] = biological target: T1, SsoPCNA2; test: SPR; 20 nM SsoPCNA1
MsePCNA2 [13] = biological target: T2, MsePCNA2; test: SPR; 20 nM SsoPCNA1
MsePCNA2 [14] = biological target: T2, MsePCNA2; test: SPR; 40 nM SsoPCNA1
MsePCNA2 [15] = biological target: T2, MsePCNA2; test: SPR; 75 nM SsoPCNA1
SsoPCNA2 [16] = biological target: T1, SsoPCNA2; test: SPR; 2.5 nM SsoPCNA1
MsePCNA2 [17] = biological target: T2, MsePCNA2; test: SPR; 2.5 nM SsoPCNA1
SsoPCNA2 [18] = biological target: T1, SsoPCNA2; test: SPR; 2.5 nM SsoPCNA1
MsePCNA2 [19] = biological target: T2, MsePCNA2; test: SPR; 2.5 nM SsoPCNA1
SsoPCNA2 [20] = biological target: T1, SsoPCNA2; test: SPR; 0.61 nM SsoPCNA1
MsePCNA2 [21] = biological target: T2, MsePCNA2; test: SPR; 0.61 nM SsoPCNA1
SsoPCNA2 [22] = biological target: T1, SsoPCNA2; test: SPR; 0.61 nM SsoPCNA1
MsePCNA2 [23] = biological target: T2, MsePCNA2; test: SPR; 0.61 nM SsoPCNA1
SsoPCNA2 [24] = biological target: T1, SsoPCNA2; test: SPR; Biacore; about 350 RU of MsePCNA2 or SsoPCNA2 immobilised on Sensor Chip CM5; MsePCNA1 or SsoPCNA1 injected (2.5, 5, 10, 20, 40 nM), kinetic fit; 10 mM HEPES-HCl pH 7.4, 150 mM NaCl

B1: SsoPCNA1 (natural protein)
chain: MFKIVYPNAKDFFSFINSITNVTDSIILNFTEDGIFSRHLTEDKVLMAIMRIPKDVLSEYSIDSPTSVKLDVSSVKKILSKASSKKATIELTETDSGLKIIIRDEKSGAKSTIYIKAEKGQVEQLTEPKVNLAVNFTTDESVLNVIAADVTLVGEEMRISTEEDKIKIEAGEEGKRYVAFLMKDKPLKELSIDTSASSSYSAEMFKDAVKGLRGFSAPTMVSFGENLPMKIDVEAVSGGHMIFWIAPRL
With B1 the koff (SsoPCNA2 [1]) was 0.000173 s⁻¹, the koff (MsePCNA2 [2]) was 0.000505 s⁻¹ and the Kd (SsoPCNA2 [3]) was 0.602 nM. It also gave a koff (SsoPCNA2 [4]) of 0.000182 s⁻¹, a koff (MsePCNA2 [5]) of 0.000501 s⁻¹ and a koff (SsoPCNA2 [6]) of 0.000163 s⁻¹. The koff (MsePCNA2 [7]) was 0.000472 s⁻¹, the koff (SsoPCNA2 [8]) was 0.000134 s⁻¹ and the koff (SsoPCNA2 [9]) was 3.07e-05 s⁻¹. For the same binder, the koff (MsePCNA2 [10]) was 9.46e-05 s⁻¹, the Kd (MsePCNA2 [11]) was 1.57 nM and the Kd (SsoPCNA2 [12]) was 0.116 nM. It also gave a Kd (MsePCNA2 [13]) of 2.67 nM, a Kd (MsePCNA2 [14]) of 1.63 nM and a Kd (MsePCNA2 [15]) of 2.14 nM. The koff (SsoPCNA2 [16]) was 0.000171 s⁻¹, the koff (MsePCNA2 [17]) was 0.000512 s⁻¹ and the Kd (SsoPCNA2 [18]) was 0.473 nM. For the same binder, the Kd (MsePCNA2 [19]) was 1.41 nM, the koff (SsoPCNA2 [20]) was 0.000172 s⁻¹ and the koff (MsePCNA2 [21]) was 0.000528 s⁻¹. It also gave a Kd (SsoPCNA2 [22]) of 0.383 nM, a Kd (MsePCNA2 [23]) of 1.21 nM and a Kd (SsoPCNA2 [24]) of 0.65 nM. For the same binder, the koff (SsoPCNA2 [24]) was 0.00015 s⁻¹ and the kon (SsoPCNA2 [24]) was 250000 M⁻¹ s⁻¹.

Reference: publication PMC4894655, “Three proliferating cell nuclear antigen homologues from Metallosphaera sedula form a head-to-tail heterotrimer” (Scientific Reports, 2016)
